Test results from patent US20210116443A1 (CREATIVE PROTEIN SOLUTIONS, published 2021).

Key:
[1] = target: T1, HIS-TreAC: N-terminally HIS-tagged C-terminal fragment of TreA (Escherichia coli O9:H4 (strain HS), UniProt A7ZZD1 97-565); assay: split trehalase complementation, 24 h with trehalose, Benedict's reagent (FIG. 7)
T1 construct: Split E. coli trehalase fragment; also called HIS-tagged TreA^C
T1 sequence: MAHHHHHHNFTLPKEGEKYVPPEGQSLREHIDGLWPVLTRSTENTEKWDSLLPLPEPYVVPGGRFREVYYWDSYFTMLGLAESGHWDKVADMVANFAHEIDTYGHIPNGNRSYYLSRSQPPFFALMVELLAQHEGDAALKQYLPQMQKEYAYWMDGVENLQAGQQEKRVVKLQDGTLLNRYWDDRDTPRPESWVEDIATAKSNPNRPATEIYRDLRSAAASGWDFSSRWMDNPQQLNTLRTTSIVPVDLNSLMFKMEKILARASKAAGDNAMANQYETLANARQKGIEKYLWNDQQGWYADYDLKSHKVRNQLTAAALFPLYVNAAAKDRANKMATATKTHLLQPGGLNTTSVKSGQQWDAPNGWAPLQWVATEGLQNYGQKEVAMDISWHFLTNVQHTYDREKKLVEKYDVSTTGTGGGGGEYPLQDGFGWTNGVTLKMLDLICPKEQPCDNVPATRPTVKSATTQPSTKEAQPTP

[2] = target: T2, TreAC-HIS: C-terminally HIS-tagged C-terminal fragment of TreA (Escherichia coli O9:H4 (strain HS), UniProt A7ZZD1 96-565); assay: as above
T2 construct: Split E. coli trehalase fragment; also called HIS-tagged TreA^C
T2 sequence: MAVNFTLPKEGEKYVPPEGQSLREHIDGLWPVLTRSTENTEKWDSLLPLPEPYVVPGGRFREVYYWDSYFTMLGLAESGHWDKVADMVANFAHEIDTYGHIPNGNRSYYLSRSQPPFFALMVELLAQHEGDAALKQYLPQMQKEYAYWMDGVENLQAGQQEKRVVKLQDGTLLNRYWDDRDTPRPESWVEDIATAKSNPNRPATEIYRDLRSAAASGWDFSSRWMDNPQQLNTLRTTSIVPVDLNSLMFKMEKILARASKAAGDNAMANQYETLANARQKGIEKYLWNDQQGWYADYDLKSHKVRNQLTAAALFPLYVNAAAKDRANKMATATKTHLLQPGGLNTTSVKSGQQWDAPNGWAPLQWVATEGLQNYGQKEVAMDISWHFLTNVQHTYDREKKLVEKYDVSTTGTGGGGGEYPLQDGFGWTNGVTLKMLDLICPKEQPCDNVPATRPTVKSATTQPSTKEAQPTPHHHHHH

[3] = target: T3, HIS-TreAC-KI: N-terminally HIS-tagged fragment of TreA with C-terminal fusion leucine zipper (Escherichia coli O9:H4 (strain HS), UniProt A7ZZD1 97-565); assay: split trehalase complementation, non-complementary zippers Ki+Ki (FIG. 24A)
T3 sequence: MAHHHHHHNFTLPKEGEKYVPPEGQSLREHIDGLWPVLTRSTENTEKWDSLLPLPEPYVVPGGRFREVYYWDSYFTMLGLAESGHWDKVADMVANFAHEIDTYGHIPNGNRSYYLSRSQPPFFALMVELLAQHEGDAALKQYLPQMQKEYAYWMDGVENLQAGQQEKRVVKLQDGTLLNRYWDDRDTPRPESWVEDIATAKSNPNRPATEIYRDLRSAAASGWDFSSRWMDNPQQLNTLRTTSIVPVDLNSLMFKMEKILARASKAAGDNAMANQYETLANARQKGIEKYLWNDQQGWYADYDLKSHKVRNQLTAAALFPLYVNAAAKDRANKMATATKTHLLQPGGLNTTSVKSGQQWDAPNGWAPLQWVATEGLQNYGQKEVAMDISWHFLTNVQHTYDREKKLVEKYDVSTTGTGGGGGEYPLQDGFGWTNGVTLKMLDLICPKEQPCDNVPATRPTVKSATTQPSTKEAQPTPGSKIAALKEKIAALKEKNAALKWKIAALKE

[4] = target: T3, HIS-TreAC-KI: N-terminally HIS-tagged …; assay: cell-based or functional assay
[5] = target: T4, HIS-TreAC-EI: N-terminally HIS-tagged fragment of TreA with C-terminal fusion leucine zipper (Escherichia coli O9:H4 (strain HS), UniProt A7ZZD1 97-565); assay: split trehalase complementation, non-complementary zippers Ei+Ei (FIG. 24A)
T4 sequence: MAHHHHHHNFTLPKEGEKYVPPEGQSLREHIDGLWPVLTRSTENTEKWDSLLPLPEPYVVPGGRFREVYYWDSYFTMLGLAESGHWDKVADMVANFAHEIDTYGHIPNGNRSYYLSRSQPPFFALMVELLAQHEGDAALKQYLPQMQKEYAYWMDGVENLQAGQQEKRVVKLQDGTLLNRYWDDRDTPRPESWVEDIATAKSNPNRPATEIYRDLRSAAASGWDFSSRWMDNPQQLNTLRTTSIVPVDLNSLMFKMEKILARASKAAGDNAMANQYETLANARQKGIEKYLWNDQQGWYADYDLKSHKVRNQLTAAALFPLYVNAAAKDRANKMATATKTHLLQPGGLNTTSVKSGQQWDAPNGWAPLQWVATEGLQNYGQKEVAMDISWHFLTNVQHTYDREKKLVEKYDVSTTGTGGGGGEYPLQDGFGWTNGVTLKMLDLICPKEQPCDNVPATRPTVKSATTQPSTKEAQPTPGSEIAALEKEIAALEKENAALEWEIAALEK

[6] = target: HIS-TreA^N-bCalm: N-terminally HIS-tagged N-terminal fragment of TreA^N with C-terminal fusion of bovine …; assay: split trehalase complementation with Ca2+, glucose read-out

B1: TreAN-HIS: C-terminally HIS-tagged N-terminal fragment of TreA (w/o signal peptide) (other)
chain: MEETPVTPQPPDILLGPLFNDVQNAKLFPDQKTFADAVPNSDPLMILADYRMQQNQSGFDLRHFVNVNFTLPKEGEKYVPHHHHHH
notes: Split E. coli trehalase fragment; also called HIS-tagged TreA^N
- binding result [1]: no binding
- binding result [2]: no binding

B2: HIS-TreAN-KI: N-terminally HIS-tagged N-terminal fragment of TreA with C-terminal fusion with leucine zipper (other)
chain: MAHHHHHHEETPVTPQPPDILLGPLFNDVQNAKLFPDQKTFADAVPNSDPLMILADYRMQQNQSGFDLRHFVNVNFTLPKEGEKYVPGSVPGSKIAALKEKIAALKEKNAALKWKIAALKE
- binding result [3]: no binding

B3: HIS-TreAN-EI: N-terminally HIS-tagged N-terminal fragment of TreA with C-terminal fusion with leucine zipper (other)
chain: MAHHHHHHEETPVTPQPPDILLGPLFNDVQNAKLFPDQKTFADAVPNSDPLMILADYRMQQNQSGFDLRHFVNVNFTLPKEGEKYVPGSVPGSEIAALEKEIAALEKENAALEWEIAALEK
- glucose signal over 3 h, lyophilized fusions resuspended in acidified bovine blood or milk (glucose strips) [4]: 2 fold
- binding result [5]: no binding

B4: CaMKIIp-TreA^C-HIS: CaMKII peptide N-terminally fused to the C-terminally HIS-tagged C-terminal fragment of TreA (other)
chain: MARRKLKGAILTTMLATRNFVDNFTLPKEGEKYVPPEGQSLREHIDGLWPVLTRSTENTEKWDSLLPLPEPYVVPGGRFREVYYWDSYFTMLGLAESGHWDKVADMVANFAHEIDTYGHIPNGNRSYYLSRSQPPFFALMVELLAQHEGDAALKQYLPQMQKEYAYWMDGVENLQAGQQEKRVVKLQDGTLLNRYWDDRDTPRPESWVEDIATAKSNPNRPATEIYRDLRSAAASGWDFSSRWMDNPQQLNTLRTTSIVPVDLNSLMFKMEKILARASKAAGDNAMANQYETLANARQKGIEKYLWNDQQGWYADYDLKSHKVRNQLTAAALFPLYVNAAAKDRANKMATATKTHLLQPGGLNTTSVKSGQQWDAPNGWAPLQWVATEGLQNYGQKEVAMDISWHFLTNVQHTYDREKKLVEKYDVSTTGTGGGGGEYPLQDGFGWTNGVTLKMLDLICPKEQPCDNVPATRPTVKSATTQPSTKEAQPTPHHHHHH
notes: also called MaMKII peptide fused to C-terminal fragment of TreA
- binding result [6]: binds
